System: PAPPA2 (pappalysin-2), full-length urinary protein from vAKI patients

For Cathepsin D, the “digestion of urinary PAPPA2, loss of PAPPA2 immunoreactivity on immunoblot” value was “the addition of cathepsin D to vAKI samples digested PAPPA2”.
